Measured values as given in US6805861B2, “Immunotherapy using cytotoxic T lymphocytes (CTL)” (Imperial College Innovations Limited, priority 1996, dated 2004).
Like-named read-outs stand apart in the source and are kept apart here.

Experiments:
[1] = CTL stimulation by mdm100 peptide in C57BL/6 mice; format: in vivo, mouse; settings: self-restricted repertoire
H-2K^b class I molecules = biological target: T1, H-2K^b class I molecules (Mus musculus, UniProt P01901); experiment: Binding of peptide to H-2K^b class I molecules
T1 sequence (P01901 22-369): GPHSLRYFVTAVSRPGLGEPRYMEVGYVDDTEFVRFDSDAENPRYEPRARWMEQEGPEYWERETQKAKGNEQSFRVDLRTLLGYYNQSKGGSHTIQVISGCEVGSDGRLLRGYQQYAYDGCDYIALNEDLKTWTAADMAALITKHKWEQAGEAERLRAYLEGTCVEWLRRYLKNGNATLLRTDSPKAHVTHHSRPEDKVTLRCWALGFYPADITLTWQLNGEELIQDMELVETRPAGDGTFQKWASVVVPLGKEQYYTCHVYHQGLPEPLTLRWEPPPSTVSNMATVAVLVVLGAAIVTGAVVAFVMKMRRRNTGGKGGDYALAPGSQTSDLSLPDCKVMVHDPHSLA
T1 sequence (P01887 21-119 partner): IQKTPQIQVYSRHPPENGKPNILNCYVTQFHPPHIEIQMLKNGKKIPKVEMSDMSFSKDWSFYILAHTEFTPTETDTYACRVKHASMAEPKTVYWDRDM
Experimental: Peptides: The mdm100 peptide corresponds to amino acid 100-107 (YAMIYRNL; SEQ ID No 1) of the murine mdm-2 protein. […] All peptides used in this study were synthesised by the central peptide synthesis laboratory of the Imperial Cancer Research Fund, London, using finoc chemistry. The quality of the peptides were assessed by HPLC analysis and the expected molecular weight was observed using MALDI mass-spectrometry. The peptides were dissolved in phosphate buffered saline (pH 7.4) to give a concentration of 2 mM and stored at −20° C.

Sequence: YAMIYRNL [mdm100 peptide]
- CTL stimulated by the peptide in C57BL/6 mice (H-2^b) [1]: only stimulated low avidity CTL
- binding to H-2K^b class I molecules (H-2K^b class I molecules): bound efficiently
- binding to H-2K^b class I molecules (H-2K^b class I molecules; listed as mdm100): efficiently bound
